Assay results from FireProtDB (doi:10.1021/bi980431i).
“And” between values parts separate entries of the source, which are not always exact repeats. Equal values may be shown once.

B1: Lysozyme C, P61626 (parent)
chain: MKALIVLGLVLLSVTVQGKVFERCELARTLKRLGMDGYRGISLANWMCLAKWESGYNTRATNYNAGDRSTDYGIFQINSRYWCNDGKTPGAVNACHLSCSALLQDNIADAVACAKRVVRDPQGIRAWVAWRNRCQNRDVRQYVQGCGV

Variants of: B1
Settings: Homo sapiens; pH 2.48; Thermal; DSC; glycine 0.05 M; reversible: yes; structure 1LZ1; whole UniProt chain shown

Row | Variant | Tm | heat capacity change of unfolding | unfolding enthalpy (calorimetric) | unfolding enthalpy (van 't Hoff)
1 | MKALIVLGLVLLSVTVQGKVFERCELARTLKRLGMDGYRGISLANWMCLAKWESGYNTRATNFNAGDRSTDYGIFQINSRYWCNDGKTPGAVNACHLSCSALLQDNIADAVACAKRVVRDPQGIRAWVAWRNRCQNRDVRQYVQGCGV | 61.4 °C | 0.89 kcal/mol/K | 109 kcal/mol | 115 kcal/mol

Same assay, conditions: Homo sapiens; pH 2.67; Thermal; DSC; glycine 0.05 M; reversible: yes; structure 1LZ1; whole UniProt chain shown

Row | Variant | Tm | heat capacity change of unfolding | unfolding enthalpy (calorimetric) | unfolding enthalpy (van 't Hoff)
2 | MKALIVLGLVLLSVTVQGKVFERCELARTLKRLGMDGYRGISLANWMCLAKWESGYNTRATNFNAGDRSTDYGIFQINSRYWCNDGKTPGAVNACHLSCSALLQDNIADAVACAKRVVRDPQGIRAWVAWRNRCQNRDVRQYVQGCGV | 64.6 °C | 1.34 kcal/mol/K | 112 kcal/mol | 117 kcal/mol

Same assay, conditions: Homo sapiens; pH 2.7; 64.9 °C; Thermal; DSC; glycine 0.05 M; reversible: yes; structure 1LZ1; whole UniProt chain shown

Row | Variant | ddG of mutation (higher = less stable) | heat capacity change of unfolding
3 | MKALIVLGLVLLSVTVQGKVFERCELARTLKRLGMDGYRGISLANWMCLAKWESGYNTRATNFNAGDRSTDYGIFQINSRYWCNDGKTPGAVNACHLSCSALLQDNIADAVACAKRVVRDPQGIRAWVAWRNRCQNRDVRQYVQGCGV | -0.07 kcal/mol | 1.1 kcal/mol/K
4 | MKALIVLGLVLLSVTVQGKVFERCELARTLKRLGMDGYRGISLANWMCLAKWESGYNTRATNYNAGDRSTDYGIFQINSRYWCNDGKTPGAVNACHLSCSALLQDNIADAVACAKRVVRDPQGIRAWVAWRNRCQNRDVRQFVQGCGV | 0.36 kcal/mol | 1.46 kcal/mol/K
5 | MKALIVLGLVLLSVTVQGKVFERCELARTLKRLGMDGFRGISLANWMCLAKWESGYNTRATNYNAGDRSTDYGIFQINSRYWCNDGKTPGAVNACHLSCSALLQDNIADAVACAKRVVRDPQGIRAWVAWRNRCQNRDVRQYVQGCGV | 0.5 kcal/mol | 1.35 kcal/mol/K

Same assay, conditions: Homo sapiens; pH 2.7; Thermal; DSC; glycine 0.05 M; reversible: yes; structure 1LZ1; whole UniProt chain shown

Row | Variant | Tm | change of melting temperature, mutant - wild type (higher = more stable) | heat capacity change of unfolding | unfolding enthalpy (calorimetric) | unfolding enthalpy (van 't Hoff)
6 | MKALIVLGLVLLSVTVQGKVFERCELARTLKRLGMDGYRGISLANWMCLAKWESGYNTRATNFNAGDRSTDYGIFQINSRYWCNDGKTPGAVNACHLSCSALLQDNIADAVACAKRVVRDPQGIRAWVAWRNRCQNRDVRQYVQGCGV | 65.1 °C | 0.2 °C | 1.1 kcal/mol/K | 112 kcal/mol | 118 kcal/mol
7 | MKALIVLGLVLLSVTVQGKVFERCELARTLKRLGMDGYRGISLANWMCLAKWESGYNTRATNYNAGDRSTDYGIFQINSRYWCNDGKTPGAVNACHLSCSALLQDNIADAVACAKRVVRDPQGIRAWVAWRNRCQNRDVRQFVQGCGV | 63.8 °C and 64 °C | -1.1 °C | 1.46 kcal/mol/K and 1.53 kcal/mol/K | 114 kcal/mol and 113 kcal/mol | 119 kcal/mol and 118 kcal/mol
8 | MKALIVLGLVLLSVTVQGKVFERCELARTLKRLGMDGFRGISLANWMCLAKWESGYNTRATNYNAGDRSTDYGIFQINSRYWCNDGKTPGAVNACHLSCSALLQDNIADAVACAKRVVRDPQGIRAWVAWRNRCQNRDVRQYVQGCGV | 63.4 °C | -1.5 °C | 1.35 kcal/mol/K | 112 kcal/mol | 120 kcal/mol

Same assay, conditions: Homo sapiens; pH 2.71; Thermal; DSC; glycine 0.05 M; reversible: yes; structure 1LZ1; whole UniProt chain shown

Row | Variant | Tm | heat capacity change of unfolding | unfolding enthalpy (calorimetric) | unfolding enthalpy (van 't Hoff)
9 | MKALIVLGLVLLSVTVQGKVFERCELARTLKRLGMDGYRGISLANWMCLAKWESGYNTRATNFNAGDRSTDYGIFQINSRYWCNDGKTPGAVNACHLSCSALLQDNIADAVACAKRVVRDPQGIRAWVAWRNRCQNRDVRQYVQGCGV | 64.9 °C | 1.15 kcal/mol/K | 111 kcal/mol | 117 kcal/mol

Same assay, conditions: Homo sapiens; pH 2.89; Thermal; DSC; glycine 0.05 M; reversible: yes; structure 1LZ1; whole UniProt chain shown

Row | Variant | Tm | heat capacity change of unfolding | unfolding enthalpy (calorimetric) | unfolding enthalpy (van 't Hoff)
10 | MKALIVLGLVLLSVTVQGKVFERCELARTLKRLGMDGYRGISLANWMCLAKWESGYNTRATNFNAGDRSTDYGIFQINSRYWCNDGKTPGAVNACHLSCSALLQDNIADAVACAKRVVRDPQGIRAWVAWRNRCQNRDVRQYVQGCGV | 68.7 °C | 0.65 kcal/mol/K | 116 kcal/mol | 122 kcal/mol
11 | MKALIVLGLVLLSVTVQGKVFERCELARTLKRLGMDGFRGISLANWMCLAKWESGYNTRATNYNAGDRSTDYGIFQINSRYWCNDGKTPGAVNACHLSCSALLQDNIADAVACAKRVVRDPQGIRAWVAWRNRCQNRDVRQYVQGCGV | 66.8 °C | 1.7 kcal/mol/K | 115 kcal/mol | 123 kcal/mol

Same assay, conditions: Homo sapiens; pH 3.13; Thermal; DSC; glycine 0.05 M; reversible: yes; structure 1LZ1; whole UniProt chain shown

Row | Variant | Tm | heat capacity change of unfolding | unfolding enthalpy (calorimetric) | unfolding enthalpy (van 't Hoff)
12 | MKALIVLGLVLLSVTVQGKVFERCELARTLKRLGMDGYRGISLANWMCLAKWESGYNTRATNFNAGDRSTDYGIFQINSRYWCNDGKTPGAVNACHLSCSALLQDNIADAVACAKRVVRDPQGIRAWVAWRNRCQNRDVRQYVQGCGV | 72.5 °C | 1.63 kcal/mol/K | 121 kcal/mol | 127 kcal/mol

Same assay, conditions: Homo sapiens; pH 2.53; Thermal; DSC; glycine 0.05 M; reversible: yes; structure 1LZ1; whole UniProt chain shown

Row | Variant | Tm | heat capacity change of unfolding | unfolding enthalpy (calorimetric) | unfolding enthalpy (van 't Hoff)
13 | MKALIVLGLVLLSVTVQGKVFERCELARTLKRLGMDGYRGISLANWMCLAKWESGYNTRATNYNAGDRSTDYGIFQINSRYWCNDGKTPGAVNACHLSCSALLQDNIADAVACAKRVVRDPQGIRAWVAWRNRCQNRDVRQFVQGCGV | 60.8 °C | 1.48 kcal/mol/K | 108 kcal/mol | 112 kcal/mol

Same assay, conditions: Homo sapiens; pH 2.68; Thermal; DSC; glycine 0.05 M; reversible: yes; structure 1LZ1; whole UniProt chain shown

Row | Variant | Tm | heat capacity change of unfolding | unfolding enthalpy (calorimetric) | unfolding enthalpy (van 't Hoff)
14 | MKALIVLGLVLLSVTVQGKVFERCELARTLKRLGMDGYRGISLANWMCLAKWESGYNTRATNYNAGDRSTDYGIFQINSRYWCNDGKTPGAVNACHLSCSALLQDNIADAVACAKRVVRDPQGIRAWVAWRNRCQNRDVRQFVQGCGV | 63.4 °C | 1.08 kcal/mol/K | 112 kcal/mol | 116 kcal/mol

Same assay, conditions: Homo sapiens; pH 3.06; Thermal; DSC; glycine 0.05 M; reversible: yes; structure 1LZ1; whole UniProt chain shown

Row | Variant | Tm | heat capacity change of unfolding | unfolding enthalpy (calorimetric) | unfolding enthalpy (van 't Hoff)
15 | MKALIVLGLVLLSVTVQGKVFERCELARTLKRLGMDGYRGISLANWMCLAKWESGYNTRATNYNAGDRSTDYGIFQINSRYWCNDGKTPGAVNACHLSCSALLQDNIADAVACAKRVVRDPQGIRAWVAWRNRCQNRDVRQFVQGCGV | 69.7 °C | 1.82 kcal/mol/K | 121 kcal/mol | 125 kcal/mol

Same assay, conditions: Homo sapiens; pH 2.58; Thermal; DSC; glycine 0.05 M; reversible: yes; structure 1LZ1; whole UniProt chain shown

Row | Variant | Tm | heat capacity change of unfolding | unfolding enthalpy (calorimetric) | unfolding enthalpy (van 't Hoff)
16 | MKALIVLGLVLLSVTVQGKVFERCELARTLKRLGMDGFRGISLANWMCLAKWESGYNTRATNYNAGDRSTDYGIFQINSRYWCNDGKTPGAVNACHLSCSALLQDNIADAVACAKRVVRDPQGIRAWVAWRNRCQNRDVRQYVQGCGV | 61.1 °C | 1.67 kcal/mol/K | 106 kcal/mol | 114 kcal/mol

Same assay, conditions: Homo sapiens; pH 3.18; Thermal; DSC; glycine 0.05 M; reversible: yes; structure 1LZ1; whole UniProt chain shown

Row | Variant | Tm | heat capacity change of unfolding | unfolding enthalpy (calorimetric) | unfolding enthalpy (van 't Hoff)
17 | MKALIVLGLVLLSVTVQGKVFERCELARTLKRLGMDGFRGISLANWMCLAKWESGYNTRATNYNAGDRSTDYGIFQINSRYWCNDGKTPGAVNACHLSCSALLQDNIADAVACAKRVVRDPQGIRAWVAWRNRCQNRDVRQYVQGCGV | 72 °C | 0.6 kcal/mol/K | 122 kcal/mol | 129 kcal/mol
